# Reference: the Human Domainome abundance scans (Beltran et al. 2025)
# ± gives the uncertainty stated by the source.
# B1: Far upstream element-binding protein 1, residues 184 to 257; numbered along this chain, Q96AE4 (parent)
# chain: GNAVQEIMIPASKAGLVIGKGGETIKQLQERAGVKMVMIQDGPQNTGADKPLRITGDPYKVQQAKEMVLELIRD
# Variants of: B1
# Assay: abundance fitness (aPCA) (normalised: wild type 0, dead -1); higher = more abundant; growth selection in yeast, the domain comes from the species named
# Settings: Homo sapiens
row,Variant,abundance fitness
1,Q63H,-0.069 ± 0.049
2,Q63Y,-0.027 ± 0.05
3,Q63D,-0.116 ± 0.04
4,Q63C,0.013 ± 0.045
5,Q63P,-0.408 ± 0.036
6,A3P,0.109 ± 0.037
7,A3R,0.17 ± 0.027
8,A3H,-0.044 ± 0.05
9,V4I,0.097 ± 0.042
10,I18A,0.038 ± 0.031
11,I18Q,-0.058 ± 0.035
12,K13F,-0.182 ± 0.048
13,K13C,-0.008 ± 0.042
14,D74Y,-0.197 ± 0.051
15,D74T,-0.076 ± 0.042
16,D74S,-0.111 ± 0.037
17,D74P,-0.016 ± 0.041
18,M8E,-0.166 ± 0.039
19,M8C,-0.339 ± 0.047
20,M8N,-0.078 ± 0.049
21,M8S,-0.121 ± 0.031

row,Variant,abundance fitness
1,M8I,-0.011 ± 0.047
2,M8G,-0.151 ± 0.027
3,G56Y,-1.25 ± 0.17
4,G56S,-1.02 ± 0.051
5,G56T,-1.12 ± 0.069
6,G56Q,-0.962 ± 0.071
7,G56V,-1.26 ± 0.079
8,G56P,-1.18 ± 0.073
9,G56A,-1.01 ± 0.05
10,A11W,-0.17 ± 0.033
11,A11C,-0.034 ± 0.043
12,A11T,-0.08 ± 0.035
13,A11N,0.021 ± 0.046
14,Q27R,-0.011 ± 0.027
15,Q27Y,-0.129 ± 0.049
16,Q27L,-0.083 ± 0.033
17,Q27A,-0.05 ± 0.033
18,Q27S,-0.021 ± 0.032
19,Q27G,-0.013 ± 0.028
20,M36G,-0.67 ± 0.033
21,E23P,-0.434 ± 0.038

row,Variant,abundance fitness
1,E23R,0.136 ± 0.026
2,E23V,-0.063 ± 0.03
3,E23N,-0.026 ± 0.055
4,E23G,0.018 ± 0.027
5,E23L,-0.051 ± 0.03
6,E23Y,-0.067 ± 0.046
7,E23I,-0.051 ± 0.057
8,D57E,0.019 ± 0.029
9,D57Q,-0.018 ± 0.036
10,M38T,-0.21 ± 0.035
11,M38W,-0.032 ± 0.034
12,M38A,-0.183 ± 0.032
13,M38D,-0.392 ± 0.055
14,M38H,-0.13 ± 0.053
15,P10Y,-1.03 ± 0.12
16,P10D,-0.355 ± 0.045
17,P10I,-0.903 ± 0.084
18,P10L,-0.922 ± 0.049
19,S12F,-0.207 ± 0.062
20,S12V,-0.059 ± 0.033
21,S12R,-0.025 ± 0.026

row,Variant,abundance fitness
1,S12Q,-0.077 ± 0.04
2,S12D,0.004 ± 0.043
3,S12C,-0.133 ± 0.044
4,V17Y,-0.428 ± 0.061
5,V17S,-0.505 ± 0.035
6,V61H,-0.814 ± 0.07
7,V61D,-0.881 ± 0.073
8,V61A,-0.22 ± 0.031
9,V61N,-0.764 ± 0.066
10,V61M,-0.236 ± 0.048
11,R31P,-0.484 ± 0.044
12,R31K,0.016 ± 0.039
13,R31F,-0.155 ± 0.05
14,R31S,-0.008 ± 0.03
15,E66N,-0.048 ± 0.043
16,E66L,-0.092 ± 0.032
17,E66F,-0.18 ± 0.046
18,E66H,-0.165 ± 0.051
19,K20F,-0.07 ± 0.049
20,K20P,-0.026 ± 0.032
21,Q44M,-0.007 ± 0.04
